Data taken from article PMC2849744.

Biological target: ANF-RGC 669WTAPELL675 deletion mutant (UniProt P18910)
Assay: radioligand binding

Sequence of UniProt P18910 (P18910 29-1057, stated change not applied): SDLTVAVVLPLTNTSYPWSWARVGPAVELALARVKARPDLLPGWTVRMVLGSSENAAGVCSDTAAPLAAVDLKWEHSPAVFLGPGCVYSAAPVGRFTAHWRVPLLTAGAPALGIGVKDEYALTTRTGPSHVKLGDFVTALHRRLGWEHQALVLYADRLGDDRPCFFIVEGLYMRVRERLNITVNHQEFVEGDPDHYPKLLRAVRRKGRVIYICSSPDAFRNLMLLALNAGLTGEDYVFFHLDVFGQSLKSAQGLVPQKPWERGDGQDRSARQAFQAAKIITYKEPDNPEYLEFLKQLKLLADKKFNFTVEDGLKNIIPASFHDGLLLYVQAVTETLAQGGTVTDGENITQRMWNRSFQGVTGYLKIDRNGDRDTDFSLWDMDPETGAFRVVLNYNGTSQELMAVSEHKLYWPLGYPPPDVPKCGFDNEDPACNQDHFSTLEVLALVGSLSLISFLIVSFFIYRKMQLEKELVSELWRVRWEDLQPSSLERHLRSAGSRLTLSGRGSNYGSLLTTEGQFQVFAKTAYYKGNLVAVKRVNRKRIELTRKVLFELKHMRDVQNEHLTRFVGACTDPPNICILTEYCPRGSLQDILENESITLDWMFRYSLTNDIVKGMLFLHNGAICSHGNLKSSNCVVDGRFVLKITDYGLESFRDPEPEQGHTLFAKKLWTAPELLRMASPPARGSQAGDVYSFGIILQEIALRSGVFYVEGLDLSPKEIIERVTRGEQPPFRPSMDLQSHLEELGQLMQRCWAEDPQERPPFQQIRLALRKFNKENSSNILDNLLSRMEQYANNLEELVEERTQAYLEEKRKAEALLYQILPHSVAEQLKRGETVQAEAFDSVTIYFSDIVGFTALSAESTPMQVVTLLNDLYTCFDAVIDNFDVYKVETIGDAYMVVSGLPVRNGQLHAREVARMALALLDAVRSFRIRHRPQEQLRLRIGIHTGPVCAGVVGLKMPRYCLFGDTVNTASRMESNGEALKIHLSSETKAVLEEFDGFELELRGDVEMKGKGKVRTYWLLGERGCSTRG

atrial natriuretic factor (ANF) (peptide)
specific binding (pmol [125I]ANF/mg protein): 10.1
